From patent US11692007B2, “Amino deprotection using 3-(diethylamino)propylamine” (priority 2021, dated 2023)
Where two headings read alike, the source gives them in different places. Marks after values point to notes of the source that are not given here. Non-standard residues stand in square brackets, D forms with d. Residues, ends and D or L forms follow the SMILES beside them. *: point of attachment. dPhe(4-NHCONH2) = NC(=O)Nc1ccc(C[C@@H](N)C(=O)O)cc1; Dihydroorotyl(S) = O=C1C[C@@H](C(=O)*)NC(=O)N1; dPhe(4-Cl) = N[C@H](Cc1ccc(Cl)cc1)C(=O)O; Phe(4-NH2) = Nc1ccc(C[C@H](N)C(=O)O)cc1; d2Nal = N[C@H](Cc1ccc2ccccc2c1)C(=O)O; Lys(iPr) = CC(C)NCCCC[C@H](N)C(=O)O; d3Pal = N[C@H](Cc1cccnc1)C(=O)O

How the values were obtained:
[1] = tested on: rat; details: in vivo; cited from earlier work
[2] = for Hydantoin impurity (VI) at RRT 1.03 / purity (HPLC) / specified impurity RRT 0.85 (X, unknown): RT; for Hydantoin impurity (VI) at RRT 1.03: at both t0 and t3 (24 h); for specified impurity RRT 0.85 (X, unknown): not present at t0
Experimental: Degarelix was kept in a solution of 10% DEAPA in DMF for 24 h to simulate conditions corresponding to those used for removal of Fmoc group during full SPPS. Samples were analyzed by HPLC at four checkpoints up to 24 h and the four HPLC profiles obtained were compared as shown in FIG. 3 and FIG. 4 (for detailed experimental procedure, see Example 7).
Example 7: HPLC analyses were performed on Agilent 1260 Infinity II system, using columns Waters Cortecs C18 2.7 μm, 4.6×150 mm; temperature: 30° C.; injection volume: 10 μL, UV: 245 nm; pH 5.5 Phosphate Buffer: 25 mM Potassium Phosphate to pH 5.5; pH 3.5 Phosphate Buffer: 25 mM Potassium Phosphate to pH 3.5; mobile phases: 75% pH 5.5 Buffer: 25% CH3CN (A); 65% pH 3.5 Buffer: 35% CH3CN (B); flow: 1.0 mL/min, sample concentration 0.5 mg/ml; gradient: 0-5 min 0% B, 5-45 min […], 45-46 min 100-0% B, 46-60 min 0% B.
The stability at RT was followed for 24 h at four check points, i.e. t0, 1 h (t1), 4 h (t2) and 24 h (t3).
Superimposed HPLC profiles are shown in FIG. 3 (Test 1) and FIG. 4 (Test 2).

[3] = Experimental: A sample of Degarelix, as a lyophilized powder of about 99% of purity, was dissolved at a concentration of 17 g/L in DMF with 10% of piperidine, TMG, TBA or DEAPA. The stability at RT was measured by HPLC at t=0 (t0), t=8 hr (t1), and t=24 hr (t3) using an Agilent 1260 Infinity II system, using a column Waters Xterra Shield RP18, 3.5 μm, 4.6×150 mm; temperature: 25° C.; sample concentration 0.5 mg/mL; injection volume: 10 μL; flow: 0.7 mL/min; buffer: 65% 40 mM ammonium acetate, pH 10:35% ACN; elution: isocratic, 0-30 min 100% buffer; detection: UV 245 nm.
[4] = tested on: rabbits; details: acute oral toxicity; cited from earlier work
[5] = tested on: rats; details: acute oral toxicity; cited from earlier work
[6] = tested on: mice; details: acute oral toxicity; cited from earlier work
[7] = Stress stability test of resin-bound H-Ala-Lys-Asp-Gly-Tyr-Ile-OH with piperidine, DEAPA, TMG and TBA in DMF or NBP (aspartimide formation, HPLC); type: physicochemical
Experimental: A stress test was then performed whereby the model peptide was submitted to basic conditions to simulate repeated alpha-amino deprotection cycles. Resin-bound H-Ala-Lys-Asp-Gly-Tyr-Ile-OH (still bearing side-chain protections) was treated in parallel with 20% piperidine, 10% DEAPA, 5% TMG or 20% TBA solutions, in DMF or NBP, for 4 h at RT.
As shown in Scheme 2 above, the formation of the aspartimide side-product may be followed by nucleophilic attack onto the aspartimide ring with formation of further by-products, like amine-adducts (amine-mediated ring-opening) and alpha- and beta-peptides (water-mediated ring-opening).
The hexapeptide samples obtained after such treatments with the Fmoc cleavage solutions were analyzed by HPLC and the results are shown in Table 1 (for detailed experimental procedure, see Example 6).
In Table 1, Δ Asp indicates the amount of additional overall aspartimide impurities (comprising piperidides by-products) resulting from the stress test relative to the initial aspartimide amount (2.6%).
Examples 1-6: HPLC-MS analyses were performed on Agilent 1260 Infinity II system coupled to an electrospray ionization mass spectrometer (positive-ion mode, m/z=100-1500, fragmentor 30 V), using columns Agilent Zorbax-SB-C18 5 μm, 250×4.6 mm or Phenomenex Luna C18 5 μm, 250×4.6 mm; temperature: 25° C.; injection volume: 10 μL, UV: 220 nm, mobile phases: H2O+0.08% TFA (A) and CH3CN+0.08% TFA (B), flow: 0.5 mL/min or 1.0 mL/min.
100 mg of dry resin H-Ala-Lys-Asp-Gly-Tyr-Ile-Trt-PS (prepared as described in Example 2) were swelled in 2 mL of DMF or NBP for 30 minutes. The resin was filtered and a 2 mL solution of 10% DEAPA (or 20% piperidine, 5% TMG, 20% TBA) in DMF or NBP was added to the resin and stirred for 4 hours at RT. The resin was filtered, washed with DMF or NBP (3×2 mL) and with DCM (3×2 mL). Dry peptide resin was suspended in 3 mL of the mixture TFA/TIS/H2O (90/5/5 v/v/v) and stirred for 2 h. The resin was filtered off and diisopropylether (10 mL) cooled to 4° C. was added to the solution. The peptide was filtered and dried in vacuo to obtain crude H-Ala-Lys-Asp-Gly-Tyr-Ile-OH (II) and aspartimide impurity (III) in different ratios according to the used conditions.
Table 1 in the description lists the results. ΔAsp indicates the difference between the aspartimide amount formed after stress tests (including piperidides if present) and that arising from the hexapeptide synthesis (2.6%, see Example 2).
HPLC-MS analysis gradient: 0-30 min 10-40% B; flow: 0.5 mL/min.

[8] = Test 1, about 170 g/L in DMF with 10% DEAPA, t3 (24 h)
[9] = Test 2, about 17 g/L in DMF with 10% DEAPA, t3 (24 h)
[10] = 24 hr at RT, 10% DEAPA in DMF, 17 g/L
[11] = 24 hr at RT, 10% TBA in DMF, 17 g/L
[12] = 24 hr at RT, 10% TMG in DMF, 17 g/L
[13] = 24 hr at RT, 10% piperidine in DMF, 17 g/L
[14] = duration 0, base solution none, 17 g/L in DMF
[15] = 10% DEAPA in DMF, 4 h at RT, resin-bound
[16] = 10% DEAPA in NBP, 4 h at RT, resin-bound
[17] = 20% TBA in DMF, 4 h at RT, resin-bound
[18] = 20% TBA in NBP, 4 h at RT, resin-bound
[19] = 20% piperidine in DMF, 4 h at RT, resin-bound
[20] = 20% piperidine in NBP, 4 h at RT, resin-bound
[21] = starting point, after synthesis in DMF with 20% pip, before stress test

## CCN(CC)CCCN [DEAPA, 3-(diethylamino)propylamine]
[1]
  LD50: 830 mg/kg

## CC(=O)N[C@H](Cc1ccc2ccccc2c1)C(=O)N[C@H](Cc1ccc(Cl)cc1)C(=O)N[C@H](Cc1cccnc1)C(=O)N[C@@H](CO)C(=O)N[C@@H](Cc1ccc(NC(=O)[C@@H]2CC(=O)NC(=O)N2)cc1)C(=O)N[C@H](Cc1ccc(NC(N)=O)cc1)C(=O)N[C@@H](CC(C)C)C(=O)N[C@@H](CCCCNC(C)C)C(=O)N1CCC[C@H]1C(=O)N[C@H](C)C(N)=O [Degarelix, Ac-D-Nal-D-Cpa-D-Pal-Ser-Aph(Hor)-D-Aph(Cbm)-Leu-Lys(iPr)-Pro-D-Ala-NH2] (Ac-[d2Nal][dPhe(4-Cl)][d3Pal]S[Phe(4-NH2)](Dihydroorotyl(S))[dPhe(4-NHCONH2)]L[Lys(iPr)]P[dA]-NH2)
[2]; 10% DEAPA in DMF, up to 24 h
  degradation of degarelix: No significant degradation
  increase of hydantoin impurity: no increase
[2]; Test 1, about 170 g/L in DMF with 10% DEAPA
  Hydantoin impurity (VI) at RRT 1.03: 0.10%
[2]; Test 1, about 170 g/L in DMF with 10% DEAPA, t0
  purity (HPLC): 99.17%
[2]; [8]
  purity (HPLC): 99.10%
  specified impurity RRT 0.85 (X, unknown): 0.06%
[2]; Test 2, about 17 g/L in DMF with 10% DEAPA
  Hydantoin impurity (VI) at RRT 1.03: 0.09%
[2]; Test 2, about 17 g/L in DMF with 10% DEAPA, t0
  purity (HPLC): 99.18%
[2]; [9]
  purity (HPLC): 99.10%
  specified impurity RRT 0.85 (X, unknown): 0.04%
[3]; [10]
  Degarelix %: 99.97%
  Hydantoin VI %: 0.03%
[3]; [11]
  Degarelix %: 99.96%
  Hydantoin VI %: 0.04%
[3]; [12]
  Degarelix %: 98.7%
  Hydantoin VI %: 1.3%
[3]; [13]
  Degarelix %: 99.96%
  Hydantoin VI %: 0.04%
[3]; after 24-hours treatment with DEAPA (10% in DMF)
  amount of hydantoin impurity (VI): unchanged
[3]; [14]
  Degarelix %: 99.97%
  Hydantoin VI %: 0.03%

## C1CCNCC1 [piperidine]
[4]
  LD50: 145 mg/kg
[5]
  LD50: 400 mg/kg
[6]
  LD50: 30 mg/kg

## H-Ala-Lys-Asp-Gly-Tyr-Ile-OH (H-AKDGYI-OH) [III]
[7]; 5% TMG in DMF, 4 h at RT, resin-bound
  Aspartimide (IV) (A %): 85.5 A %
[7]; 5% TMG in DMF, 4 h at RT, resin-bound, sum of alpha- and beta-peptide
  III (A %): 14.5^a A %
[7]; 5% TMG in DMF, 4 h at RT, relative to initial 2.6%
  Δ Asp (A %): 82.9 A %
[7]; 5% TMG in NBP, 4 h at RT, resin-bound
  Aspartimide (IV) (A %): 72.9 A %
[7]; 5% TMG in NBP, 4 h at RT, resin-bound, sum of alpha- and beta-peptide
  III (A %): 27.1^a A %
[7]; 5% TMG in NBP, 4 h at RT, relative to initial 2.6%
  Δ Asp (A %): 70.3 A %
[7]; [15]
  Aspartimide (IV) (A %): 10.1 A %
  III (A %): 89.9 A %
[7]; 10% DEAPA in DMF, 4 h at RT, relative to initial 2.6%
  Δ Asp (A %): 7.5 A %
[7]; [16]
  Aspartimide (IV) (A %): 4.2 A %
  III (A %): 95.8 A %
[7]; 10% DEAPA in NBP, 4 h at RT, relative to initial 2.6%
  Δ Asp (A %): 1.6 A %
[7]; [17]
  Aspartimide (IV) (A %): 29.3 A %
  III (A %): 70.7 A %
[7]; 20% TBA in DMF, 4 h at RT, relative to initial 2.6%
  Δ Asp (A %): 26.7 A %
[7]; [18]
  Aspartimide (IV) (A %): 20.0 A %
  III (A %): 80.0 A %
[7]; 20% TBA in NBP, 4 h at RT, relative to initial 2.6%
  Δ Asp (A %): 17.4 A %
[7]; [19]
  Aspartimide (IV) (A %): 7.2 A %
  III (A %): 86.5 A %
  Piperidides (V) (A %): 6.3 A %
[7]; 20% piperidine in DMF, 4 h at RT, additional aspartimide impurities incl. piperidides relative to initial 2.6%
  Δ Asp (A %): 10.9 A %
[7]; [20]
  Aspartimide (IV) (A %): 7.1 A %
  III (A %): 90.0 A %
  Piperidides (V) (A %): 2.9 A %
[7]; 20% piperidine in NBP, 4 h at RT, incl. piperidides, relative to initial 2.6%
  Δ Asp (A %): 7.4 A %
[7]; [21]
  Aspartimide (IV) (A %): 2.6 A %
  III (A %): 97.4 A %
